Experimental data published in US20230192897A1 (NUMAB THERAPEUTICS, published 2023).
Substitutions are numbered along the chain they refer to. Several values for one entry are separate records, joined by “and”; a condition that tells them apart may be missing. Equal values may be shown once. One block for each binder: values may come before it.

Legend:
[1] = target: T1, Fc tagged human CD137 (human, UniProt Q07011 24-186); experiment: SPR
T1 construct: also called CD137-Fc chimeric protein
Protocol: (§1) Affinity to PDL1 of the different species was determined by SPR measurements using a Biacore T200 device (GE Healthcare). An antibody specific for the Fc region of human IgGs was immobilized on a sensor chip (CM5 sensor chip, GE Healthcare) by amine-coupling. For all formats, with the exception of the Fc containing Morrison formats, PDL1-Fc chimeric protein from different species were captured by the immobilized antibody.
(§2) Three-fold serial dilutions of the molecules specific for PDL1 (0.12-90 nM) were injected into the flow cells for three minutes and dissociation was monitored for 10 minutes. After each injection cycle, surfaces were regenerated with one injection of a 3 M MgCl₂ solution. The apparent dissociation (kd) and association (kₐ) rate constants and the apparent dissociation equilibrium constant (KD) were calculated using one-to-one Langmuir binding model. Affinity to CD137 of the different species was determined using the identical setup as for PDL1 with the exception that CD137-Fc chimeric protein from different species were captured by the immobilized antibody.

[2] = target: T2, Fc tagged human PDL1 (human, UniProt Q9NZQ7 19-239); experiment: SPR
T2 construct: Bought (Sino Biological, cat. 10084-H02H); captured on the SPR chip; also called PDL1-Fc chimeric protein
Protocol: as §1, §2

[3] = target: human PDL1 on cells (human, UniProt Q9NZQ7 19-290); experiment: cell-based or functional assay
[4] = target: CD137 on Jurkat NFkB reporter cells (human, UniProt Q07011 24-255); experiment: cell-based or functional assay
[5] = target: T3, biotinylated human PDL1 (human, UniProt Q9NZQ7 19-238, limits assumed, biotinylated); experiment: competition ELISA B7.1/PDL1
T3 construct: also called biotinylated PDL1
Protocol: Plates were blocked for 1 hour at room temperature by adding 300 μl of PBS with 1% BSA and 0.2% tween (dilution buffer) to each well. […] The mixtures were pre-incubated for 1 hour at room temperature under gentle agitation on a rotating mixer (21 rpm) and added to the microplates after 3 wash cycles with 450 μl wash buffer per well. Plates were incubated for 1.5 hours at room temperature under gentle agitation, then 10 ng/ml streptavidin-polyHRP40 was added to each microplate well after three washes with 450 μl of wash buffer per well. After 1 h incubation at RT, plates were washed three times with 450 μl wash buffer and TMB substrate solution was added. The enzymatic reaction was stopped after 6 minutes by addition of 1 M HCl and absorbance was measured at 450 nm using 690 nm as a reference wavelength. For calculation of IC₅₀ values, a four-parameter logistic (4PL) curve fit was performed in Graph Pad Prism using reference subtracted values.

[6] = target: T3, biotinylated human PDL1; experiment: competition ELISA PD-1/PDL1
Protocol: Plates were blocked for 1 hour at room temperature by adding 300 μl of PBS with i%BSA and 0.2% tween (dilution buffer) to each well. Inhibitors were serially diluted in 3-fold steps to final concentrations ranging from 300 to 0.005 ng/ml in dilution buffer containing 1 ng/ml biotinylated human PDL1. The mixtures were pre-incubated for 1 hour at room temperature under gentle agitation on a rotating mixer (21 rpm) and added to the microplates after 3 wash cycles with 450 μl wash buffer per well. Plates were incubated for 1.5 hours at room temperature under gentle agitation, then 10 ng/ml streptavidin-polyHRP40 was added to each microplate well after three washes with 450 μl of wash buffer per well. After 1 h incubation at RT, plates were washed three times with 450 μl wash buffer and TMB substrate solution was added. The enzymatic reaction was stopped after 6 minutes by addition of 1 M HCl and absorbance was measured at 450 nm using 690 nm as a reference wavelength. For calculation of IC₅₀ values, a four-parameter logistic (4PL) curve fit was performed in Graph Pad Prism using reference subtracted values.

Kd [2]: < 0.00209 nM
B4: PRO1183 (scFv)
scFv: DFQLTQSPSSLSASVGDRVTITCQASQSINDYLAWYQQKPGKSPKLLIYKASTLASGVPSRFSGSGSGTDFTLTISSLQPEDFATYYCQQGYIITDIDNVFGTGTKVTVLGGGGGSGGGGSGGGGSGGGGSQSQLQESGPGLVKPSETLSLTCKASGFSFSSGYDMCWVRQPPGKGLEWIACVVAGSVDITYYASWAKGRVTISKDSSKNQVSLKLSSVTAADTAVYFCARKDAYSDAFNLWGQGTLVTVSS
notes: also called scFv of 33 03-G02 sc03

Kd [2]: 0.00594 nM
B5: PRO908 (scFv)
scFv: DIQMTQSPSSLSASVGDRVTITCQASQSIGTYLAWYQQKPGKAPKLLIYRAFILASGVPSRFSGSGSGTDFTLTISSLQPEDFATYYCQSNFYSDSTTIGPNAFGTGTKVTVLGGGGGSGGGGSGGGGSGGGGSQVQLQESGPGLVKPSETLSLTCKVSGFSFNSDYWIYWIRQPPGKGLEWIGSIYGGSSGNTQYASWAQGRVTISVDSSKNQFSLKLSSVTAADTAVYYCARGYVDYGGATDLWGQGTLVTVSS
notes: also called scFv of 37-20-B03 sc01

Kd [2]: 0.0098 nM | kon [2]: 3.4e+06 M⁻¹ s⁻¹ | Kd [1]: 1.1 nM | kon [1]: 320000 M⁻¹ s⁻¹ | IC50 (ng/ml), NF-AT potency assay, +HSA [3]: 54.8 ng/mL | rel. IC50 (avelumab/test), +HSA [3]: 0.68 fold | IC50 (ng/ml) (EC50 in Table 16C), NFkB reporter, HCC827 + IFNg, 6 h, +HSA [4]: 20.1 ng/mL | IC50 (ng/ml) (EC50 in Table 16C), NFkB reporter, HCC827 + IFNg, 24 h, +HSA [4]: 7.24 ng/mL | rel. IC50 (PRO1186/test), 6 h [4]: 0.55 fold | rel. IC50 (PRO1186/test), 24 h [4]: 1.23 fold | IC50 [5]: 8.18 ng/mL | rel. IC50 (IC50 avelumab/IC50 test) [5]: 1.51 fold | IC50 [6]: 1.78 ng/mL | rel. IC50 (IC50 avelumab/IC50 test) [6]: 1.24 fold
B6: PRO1482 (other)
chain: DIQMTQSPSSLSASVGDRVTITCQASQSINNVLAWYQQKPGKAPKLLIYRASTLASGVPSRFSGSGSGTDFTLTISSLQPEDFATYYCQSSYGNYGDFGCGTKVTVLGGGGGSEVQLVESGGGLVQPGGSLRLSCAASGFSFNSDYWIYWVRQAPGKGLEWIASIYGGSSGNTQYASWAQGRFTISRDNSKNTVYLQMNSLRAEDTAVYFCARGYVDYGGATDLWGQGTLVTVSSGGGGSGGGGSGGGGSGGGGSIQMTQSPASLSASVGDRVTITCQASQSIGTYLAWYQQKPGKPPKLLIYRAFILASGVPSRFSGSGSGTDFTLTISSLQPEDFATYYCQSNFYSDSTTIGPNAFGTGTKVTVLGGGGGSEVQLVESGGGLVQPGGSLRLSCAASGFSFSNSYWICWVRQAPGKCLEWIGCTFVGSSDSTYYANWAKGRFTISRDNSKNTVYLQMNSLRAEDTAVYYCARHPSDAVYGYANNLWGQGTLVTVSSGGGGSGGGGSIQMTQSPSSLSASVGDRVTITCQSSESVYSNNQLSWYQQKPGQPPKLLIYDASDLASGVPSRFSGSGSGTDFTLTISSLQPEDFATYYCAGGFSSSSDTAFGGGTKLTVLGGGGGSGGGGSGGGGSGGGGSEVQLVESGGGLVQPGGSLRLSCAASGFSLSSNAMGWVRQAPGKGLEYIGIISVGGFTYYASWAKGRFTISRDNSKNTVYLQMNSLRAEDTATYFCARDRHGGDSSGAFYLWGQGTLVTVSS
notes: trispecific scDb-scFv; also called 37-20-B03 sc09.1 scDb-i/38-02-A04 sc13 scDb-o/19-01-H04 sc03 scFv

Kd [2]: 0.009 nM
B7: PRO1347 (scFv)
scFv: DIQMTQSPASLSASVGDRVTITCQASQSIGTYLAWYQQKPGKPPKLLIYRAFILASGVPSRFSGSGSGTDFTLTISSLQPEDFATYYCQSNFYSDSTTIGPNAFGTGTKVTVLGGGGGSGGGGSGGGGSGGGGSEVQLVESGGGLVQPGGSLRLSCAASGFSFNSDYWIYWVRQAPGKGLEWIASIYGGSSGNTQYASWAQGRFTISRDNSKNTVYLQMNSLRAEDTAVYFCARGYVDYGGATDLWGQGTLVTVSS
notes: also called scFv of 37-20-sc09.1; 37-20-B03-sc09

Kd [1]: 3.24 nM and 3.07 nM
B9: PRO1359 (scFv)
scFv: DIQMTQSPSSLSASVGDRVTITCQASQSISNRLAWYQQKPGKAPKLLIYSASTLASGVPSRFSGSGSGTDFTLTISSLQPEDFATYYCQSTYYGNDGNAFGTGTKVTVLGGGGGSGGGGSGGGGSGGGGSEVQLVESGGGLVQPGGSLRLSCAASGFSFSANYYPCWVRQAPGKGLEWIGCIYGGSSDITYDANWTKGRFTISRDNSKNTVYLQMNSLRAEDTAVYYCARSAWYSGWGGDLWGQGTLVTVSS
notes: anti-CD137 scFv; also called 38-27-A11 sc02 scFv

Continued, binder first:

B1: PRO1352 (scFv)
scFv: DIQMTQSPSSLSASVGDRVTITCQASQSINNVLAWYQQKPGKAPKLLIYRASTLASGVPSRFSGSGSGTDFTLTISSLQPEDFATYYCQSSYGNYGDFGCGTKVTVLGGGGGSGGGGSGGGGSGGGGSEVQLVESGGGLVQPGGSLRLSCAASGFSFSNSYWICWVRQAPGKCLEWIGCTFVGSSDSTYYANWAKGRFTISRDNSKNTVYLQMNSLRAEDTAVYYCARHPSDAVYGYANNLWGQGTLVTVSS
notes: also called scFv of 38-02-A04 sc13
Kd [1]: 1.47 nM

B2: PRO966 (other)
chain: DIQMTQSPSSLSASVGDRVTITCQASQSINDYLAWYQQKPGKAPKLLIYKASTLASGVPSRFSGSGSGTDFTLTISSLQPEDFATYYCQQGYIITDIDNVFGTGTKVTVLGGGGGSQVQLQESGPGLVKPSETLSLTCKVSGFSFNNDYDMCWIRQPPGKGLEWIGCIDTGDGSTYYASWAKGRVTISVDSSKNQFSLKLSSVTAADTAVYYCAREAASSSGYGMGYFDLWGQGTLVTVSSGGGGSGGGGSGGGGSGGGGSIQMTQSPSSLSASVGDRVTITCQSSQSVYDNNWLAWYQQKPGKAPKLLIYRASNLASGVPSRFSGSGSGTDFTLTISSLQPEDFATYYCQGTYLSSNWYWAFGTGTKVTVLGGGGGSQVQLQESGPGLVKPSETLSLTCKVSGFSFSSGYDMCWIRQPPGKGLEWIGCVVAGSVDITYYASWAKGRVTISVDSSKNQFSLKLSSVTAADTAVYYCARKDAYSDAFNLWGQGTLVTVSSGGGGSGGGGSIQMTQSPSSLSASVGDRVTITCQSSESVYSNNQLSWYQQKPGQPPKLLIYDASDLASGVPSRFSGSGSGTDFTLTISSLQPEDFATYYCAGGFSSSSDTAFGGGTKLTVLGGGGGSGGGGSGGGGSGGGGSEVQLVESGGGLVQPGGSLRLSCAASGFSLSSNAMGWVRQAPGKGLEYIGIISVGGFTYYASWAKGRFTISRDNSKNTVYLQMNSLRAEDTATYFCARDRHGGDSSGAFYLWGQGTLVTVSS
notes: trispecific scDb-scFv; also called PRO1052; 38-27-C05 sc01 scDb-i/33-03-G02 sc01 scDb-o/19-01-H04-sc03 scFv
binding result [2]: binds | Kd [1]: 2.2 nM | koff [1]: 0.0022 s⁻¹

B3: PRO1392 (scFv)
scFv: B4 scFv with F2I, L4M, S43A, S133V, F228Y
notes: also called scFv of 33-03-G02 sc18
Kd [2]: 0.00994 nM

B8: PRO1360 (scFv)
scFv: B9 scFv with I2F, M4L, A43P, V132S, Y227F, Q244P
notes: anti-CD137 scFv; also called 38-27-A11 sc03 scFv
Kd [1]: 0.234 nM
